First the molecules themselves.
B1: OR4K15 (parent)
chain: GUUAACGGUCAUAGGCCAUGGAAACUAGGAGCACCAUUUCGCUGCCAGUGAAGAAAUGAACAAAGAAAAUCUGGGCCAGGCAGGCAUCAAAAGAAAUAGUCUUGCGCUCAACCAGAAAGUCUGUAAUCAUUUUAAGGGUA

This data set covers variants of B1. As to the kind of experiment: self-cleavage, relative activity (ratio to wild type); higher = more cleavage; in vitro, sequencing; the parent is a self-cleaving ribozyme.
On to C45A A51G, for which the self-cleavage worked out at 1.35.
The result for G41A A86G reads 1.05.
Under U43A A110U stands 2.05; under U43C C88U, 1.59; under A47G A95G, 1.71.
The result for G41A A63G reads 1.4; that for G44A A134G, 1.84; that for U43A U57A, 1.79.
In the case of A47G A110G, the self-cleavage stood at 0.1.
The result for A47G A110C reads 0.1.
The result for U43C A98U reads 1.68; that for U43C A94G, 1.78; that for U43C A94U, 1.77.
Under U43A G83A stands 1.97; under C40U A98G, 0.83.
Consider U43C A52U, for which the self-cleavage is 1.51.
The result for U43C A52G reads 1.49; that for A47C G79A, 0.14.
The result for U43A A94C reads 1.01; that for U43A A64G, 1.49; that for G44C A52G, 1.4.
Take C42A A52G: the self-cleavage was found to be 1.41.
The result for A47C A52G reads 0.57; that for C45A C101U, 0.48.
With U43C A91G, the self-cleavage was found to be 1.29.
On to U43A A134G, for which the self-cleavage is 1.81.
Under G44U A63G stands 1.46.
Under A47C A96G stands 1.82.
As to U43A A52G, the self-cleavage stood at 1.6.
Under U43C A68U stands 1.74; under U43C A68G, 1.21.
Under G41A A89G stands 2.8.
The result for U43A A62G reads 0.93; that for C46A C112U, 0.01.
In the case of G41A U130G, the self-cleavage was 1.4.
For U43A C128A, the self-cleavage was found to be 0.8.
In the case of A47G A67U, the self-cleavage stood at 1.48.
The result for U43C U103A reads 0.41.
The result for U43C U103C reads 1.03; that for G41U A51G, 1.69.
Under U43A A56G stands 1.86.
U43A A56C: the self-cleavage was 0.8.
The result for C40U A69G reads 0.94; that for U43C A118G, 1.02.
The result for G44U G137U reads 1.87; that for G41C A52G, 1.59; that for G41U A78G, 0.36.
Under C42U A91G stands 1.09; under U43C A89G, 2.04.
For U43C A86C, the self-cleavage was determined as 1.4.
C46U A118U: the self-cleavage amounted to 0.76.
Under U43G A69G stands 2.1; under A47G A56G, 1.03.
Under C46U A98G stands 0.74; under A47G A90G, 0.56.
Turning to A47G A90C, the self-cleavage stood at 1.68.
For A47G A114U, the self-cleavage was 0.11.
Under U43A A111C stands 0.03.
Consider U43A A111G, for which the self-cleavage was determined as 0.03.
On to C46A A78G, for which the self-cleavage was determined as 0.17.
The result for C46U A89U reads 1.71.
Turning to A47G A111U, the self-cleavage amounted to 0.12.
The result for U43A A91G reads 0.55; that for G44A U57C, 1.84; that for C40U A63G, 2.13.
Under U43A A63G stands 2.21; under G44A A91G, 0.42; under C42U A117G, 2.46.
Under C46U C113A stands 0.01; under U43C A47U, 0.96; under C45A U120A, 2.12.
For G44A A59G, the self-cleavage was determined as 1.56.
The result for U43G A90G reads 0.51; that for G41U A86U, 1.98; that for C42U A96G, 2.35.
Under C46U U72A stands 0.14.
Under G44A A125C stands 1.48; under U43C A62G, 1.29.
Regarding U43C A62U, the self-cleavage was found to be 2.19.
Regarding U43C A62C, the self-cleavage is 1.57.
Under U43A U131C stands 0.91; under C45A A117G, 2.96.
The result for G41A A96G reads 1.7; that for U43A A86G, 1.6; that for U43C A51U, 1.35.
Under U43A A118U stands 0.9; under U43A A118G, 1.25.
With U43C C45A, the self-cleavage came out at 1.19.
Under U43C C45U stands 1.6.
Under C40U A116C stands 0.08.
For the variant U43A A60U, the self-cleavage is 1.88.
Under C40U A114U stands 0.1; under A47C A125G, 0.42; under A47C U131C, 0.89.
As to U43C U108G, the self-cleavage was 0.02.
Under U43A U133C stands 2.13.
In the case of U43A A54G, the self-cleavage came out at 0.83.
Under U43C G83U stands 0.67; under U43C G83A, 1.59; under C42U A51U, 1.45.
Under C42U U103A stands 1.01; under G41A A82U, 0.14.
In the case of G41A U87C, the self-cleavage came out at 0.63.
With A47G A64U, the self-cleavage was 1.26.
U43C C113U: the self-cleavage stood at 0.04.
The result for U43A A116G reads 0.55; that for C46U U103C, 1.41; that for A47G A117G, 1.32.
The result for G41A A117G reads 0.44; that for C40G A90G, 1.44.
Turning to U43A U49A, the self-cleavage came out at 0.87.
For U43C C105A, the self-cleavage came to 0.02.
For A47G A55U, the self-cleavage was 0.19.
The result for A47G A55G reads 0.59.
The result for A47C A64U reads 1.56; that for U43C A63G, 1.8; that for U43C A63U, 0.91.
As to C42A C45A, the self-cleavage turned out to be 1.75.
The result for A47G A59U reads 1.56; that for A47C A60G, 1.63.
For C40U A111G, the self-cleavage is 0.02.
Under C45U C77A stands 0.42.
The result for A47C A111U reads 0.07; that for A47C U72A, 0.37.
As to U43C A114G, the self-cleavage was found to be 0.55.
Under C40U U108C stands 0.02.
As for U43C A82U, the self-cleavage amounted to 0.18.
Under A47C A59C stands 1.35; under U43C A134U, 2.04.
The result for A47C A114G reads 0.3.
Under G41A A129G stands 0.61.
As for G41C A135G, the self-cleavage came to 1.81.
Under C46U U131C stands 2.02.
Under C45U A82G stands 0.27; under U43C A117U, 1.17; under U43C A117G, 1.75.
Under U43A U72C stands 0.27; under U43A U72A, 0.2; under U43C A90G, 0.97.
As to A47C A110C, the self-cleavage stood at 0.46.
As to A47G A86C, the self-cleavage is 1.04.
The result for A47G A86G reads 1.25.
For the variant A47C A90G, the self-cleavage came to 1.61.
In the case of U43G A116G, the self-cleavage was 0.96.
As to C42U C128U, the self-cleavage amounted to 1.41.
Turning to C45U A78U, the self-cleavage is 0.33.
Under C45A G48A stands 1.5; under U43C G58U, 0.07.
Turning to U43C G58A, the self-cleavage came to 0.64.
The result for C45U U132C reads 0.61.
Under C45U U132A stands 1.05; under U43A G44A, 1.06; under C45U U70C, 0.82.
As to C40U U100C, the self-cleavage stood at 1.83.
Under C42U A118G stands 0.7; under G41A G106A, 0.01; under C40U A90G, 1.72.
Under C42G U108C stands 0.01; under C46U U132C, 1.97.
Under U43C A92U stands 1.6.
For U43A A68U, the self-cleavage turned out to be 1.7.
Under C40U U87C stands 1.44; under C45U A96U, 1.55; under C40G U72C, 0.41.
Under U43G A126G stands 0.92; under C40U U103A, 1.28.
For U43A A78G, the self-cleavage was 0.14.

Values taken from the RNAGym collection of RNA variant scans (doi:10.7554/elife.90254).
